US20240301385, “DNA MODIFYING ENZYMES AND ACTIVE FRAGMENTS AND VARIANTS THEREOF AND METHODS OF USE” (LIFEEDIT THERAPEUTICS, INC., published 2024)

T1: APG09980-L16-nAPG07433.1 cytosine base editor (synthetic)
T1 chain: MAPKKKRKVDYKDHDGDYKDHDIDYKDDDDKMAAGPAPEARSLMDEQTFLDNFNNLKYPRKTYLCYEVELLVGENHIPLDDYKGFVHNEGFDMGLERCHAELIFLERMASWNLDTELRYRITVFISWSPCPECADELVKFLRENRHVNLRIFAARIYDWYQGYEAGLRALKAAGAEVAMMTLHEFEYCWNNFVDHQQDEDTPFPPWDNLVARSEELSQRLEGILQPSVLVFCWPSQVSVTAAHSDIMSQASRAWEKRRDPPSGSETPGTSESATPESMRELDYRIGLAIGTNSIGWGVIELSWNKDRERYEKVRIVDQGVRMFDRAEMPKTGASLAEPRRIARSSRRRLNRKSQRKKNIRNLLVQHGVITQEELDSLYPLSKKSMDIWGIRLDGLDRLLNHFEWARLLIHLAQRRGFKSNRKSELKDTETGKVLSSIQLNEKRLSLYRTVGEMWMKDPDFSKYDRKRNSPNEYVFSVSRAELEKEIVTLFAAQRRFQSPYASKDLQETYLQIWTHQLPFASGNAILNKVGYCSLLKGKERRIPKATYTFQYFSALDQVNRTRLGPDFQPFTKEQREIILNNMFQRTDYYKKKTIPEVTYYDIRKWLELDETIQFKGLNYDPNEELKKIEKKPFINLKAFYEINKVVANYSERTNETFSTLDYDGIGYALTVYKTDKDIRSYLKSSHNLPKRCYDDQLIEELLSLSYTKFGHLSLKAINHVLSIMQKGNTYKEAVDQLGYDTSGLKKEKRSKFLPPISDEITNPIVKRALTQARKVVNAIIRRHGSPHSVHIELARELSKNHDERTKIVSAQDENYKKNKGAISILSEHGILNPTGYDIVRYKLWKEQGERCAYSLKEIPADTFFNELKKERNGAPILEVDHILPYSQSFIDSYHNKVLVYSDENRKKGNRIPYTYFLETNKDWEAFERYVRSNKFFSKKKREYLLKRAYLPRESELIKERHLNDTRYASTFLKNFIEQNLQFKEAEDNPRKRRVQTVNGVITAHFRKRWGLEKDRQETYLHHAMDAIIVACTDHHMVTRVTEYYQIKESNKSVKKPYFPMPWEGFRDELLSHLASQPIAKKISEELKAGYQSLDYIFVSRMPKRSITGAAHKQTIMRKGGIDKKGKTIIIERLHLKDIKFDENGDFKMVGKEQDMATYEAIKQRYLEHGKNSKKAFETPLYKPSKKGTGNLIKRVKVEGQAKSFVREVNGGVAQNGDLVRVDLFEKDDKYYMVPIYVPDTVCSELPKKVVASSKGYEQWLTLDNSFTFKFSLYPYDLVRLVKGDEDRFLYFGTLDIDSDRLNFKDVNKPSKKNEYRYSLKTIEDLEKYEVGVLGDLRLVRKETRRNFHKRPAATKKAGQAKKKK

B1: SGN000169 sgRNA ; SGN000169 target (ssRNA ; dsDNA)
RNA: CACAUCUCGAGCAAGACGUUGUCAUAGUUCCAUUAAAGCCAAAAGUGGCUUUGAUGUUUCUAUGAUAAGGGUUUCGACCCGUGGCGUCGGGGAUCGCCUGCCCAUUGAAAUGGGCUUCUCCCCAUUUAUU
DNA 1: CACATCTCGAGCAAGACGTT
DNA 2: AACGTCTTGCTCGAGATGTG
B2: SGN000930 sgRNA ; SGN000930 target (ssRNA ; dsDNA)
RNA: GAACAACUCAAAUGGAAAUGAAUAUGUCAUAGUUCCAUGAAAGCCAAAAGUGGCUUUGAUGUUUCUAUGAUAAGGGUUUCGGCCCGUGGCGUCGGGGAUCGCCUGCCCAUUCCGAUGGGCUUCUCCCCAUUUAUU
DNA 1: GAACAACTCAAATGGAAATGAATAT
DNA 2: ATATTCATTTCCATTTGAGTTGTTC

Target: T1, APG09980-L16-nAPG07433.1 cytosine base …
Assay: cell_activity; HEK293FT; PAM SEQ 152
Details: tags: SV40 NLS, 3xFLAG N-term; nucleoplasmin NLS C-term
Procedure, shortened: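 Editing read out by next-generation sequencing (MiSeq 2×250) of PCR amplicons spanning the target site, analysed for INDELs or % cytosine conversion per position (position 1 nearest PAM).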

Binder | activity
B1 | 24.8 % mutated reads
B2 | 25.2 % mutated reads
